Legend:
Assay in all cases: cell-based or functional assay
[1] = molecular target: HIV-1 Env of pseudovirus 7030102001E5(Rev-) (clade C (T/F)) (HIV-1)
[2] = molecular target: HIV-1 Env of pseudovirus AC10.0.29 (clade B) (HIV-1)
[3] = molecular target: HIV-1 Env of pseudovirus CAP45.2.00.G3 (clade C) (HIV-1)
[4] = molecular target: HIV-1 Env of pseudovirus CNE30 (clade BC) (HIV-1)
[5] = molecular target: HIV-1 Env of pseudovirus Ce1176_A3 (clade C (T/F)) (HIV-1)
[6] = molecular target: HIV-1 Env of pseudovirus Ce2060_G9 (clade C (T/F)) (HIV-1)
[7] = molecular target: HIV-1 Env of pseudovirus Du156.12 (clade C) (HIV-1)
[8] = molecular target: HIV-1 Env of pseudovirus HIV-16845-2.22 (clade C) (HIV-1)
[9] = molecular target: HIV-1 Env of pseudovirus PVO.4 (clade B) (HIV-1)
[10] = molecular target: HIV-1 Env of pseudovirus Q259.d2.17 (clade A) (HIV-1)
[11] = molecular target: HIV-1 Env of pseudovirus SC05_8C11_2344 (clade B (T/F)) (HIV-1)
[12] = molecular target: HIV-1 Env of pseudovirus SC422661.8 (clade B) (HIV-1)
[13] = molecular target: HIV-1 Env of pseudovirus TRO.11 (clade B) (HIV-1)
[14] = molecular target: HIV-1 Env pseudovirus 0260.v5.c36 (HIV-1)
[15] = molecular target: HIV-1 Env pseudovirus 263-8 (HIV-1)
[16] = molecular target: HIV-1 Env pseudovirus 3817.v2.c59 (HIV-1)
[17] = molecular target: HIV-1 Env pseudovirus 6952.v1.c20 (HIV-1)
[18] = molecular target: HIV-1 Env pseudovirus 928-28 (HIV-1)
[19] = molecular target: HIV-1 Env pseudovirus BJOX010000.06.2 (HIV-1)
[20] = molecular target: HIV-1 Env pseudovirus BJOX025000.01.1 (HIV-1)
[21] = molecular target: HIV-1 Env pseudovirus C3347.c11 (HIV-1)
[22] = molecular target: HIV-1 Env pseudovirus R2184.c04 (HIV-1)
[23] = molecular target: HIV-1 Env pseudovirus T250-4 (HIV-1)
[24] = molecular target: HIV-1 Env pseudovirus T278-50 (HIV-1)
[25] = molecular target: HIV-1 Env of pseudovirus 211-9 (clade CRF02_AG) (HIV-1)
[26] = molecular target: HIV-1 Env of pseudovirus BJOX010000.06.2 (clade CRF01_AE (T/F)) (HIV-1)
[27] = molecular target: HIV-1 Env of pseudovirus BJOX015000.11.5 (clade CRF01_AE (T/F)) (HIV-1)
[28] = molecular target: HIV-1 Env of pseudovirus BJOX028000.10.3 (clade CRF01_AE (T/F)) (HIV-1)
[29] = molecular target: HIV-1 Env of pseudovirus C1080.c03 (clade CRF01_AE) (HIV-1)
[30] = molecular target: HIV-1 Env of pseudovirus C3347.c11 (clade CRF01_AE) (HIV-1)
[31] = molecular target: HIV-1 Env of pseudovirus CNE5 (clade CRF01_AE) (HIV-1)
[32] = molecular target: HIV-1 Env of pseudovirus X1193_c1 (clade G) (HIV-1)

N49P11 (antibody) was tested. Which IC50 [1] did it give?
Its IC50 is 0.635 mg/L.

And the IC80 [1]?
Its IC80 is 2.29 mg/L.

What about the MPI [1] of the same substance?
Its MPI is 100.

And the IC50 [2]?
The IC50 was 5.52 mg/L.

And the IC80 [2]?
The IC80 was 20 mg/L.

And the MPI [2]?
The MPI was 100.

And the IC50 [3]?
Its IC50 is 5.25 mg/L.

And the IC80 [3]?
Its IC80 is 24 mg/L.

And the MPI [3]?
The MPI was 100.

What about the IC50 [4] of the same substance?
The IC50 was 0.889 mg/L.

And the IC80 [4]?
Its IC80 is 4.45 mg/L.

And the MPI [4]?
The MPI was 100.

And the IC50 [5]?
The IC50 was 0.946 mg/L.

What about the IC80 [5] of the same substance?
The IC80 was 6.05 mg/L.

What about the MPI [5] of the same substance?
Its MPI is 100.

And the IC50 [6]?
Its IC50 is 3.33 mg/L.

What about the IC80 [6] of the same substance?
The IC80 was 13.2 mg/L.

And the MPI [6]?
The MPI was 100.

What about the IC50 [7] of the same substance?
Its IC50 is 2.4 mg/L.

What about the IC80 [7] of the same substance?
Its IC80 is 12 mg/L.

And the MPI [7]?
The MPI was 100.

And the IC50 [8]?
Its IC50 is 1.72 mg/L.

What about the IC80 [8] of the same substance?
Its IC80 is 8.15 mg/L.

And the MPI [8]?
Its MPI is 100.

What about the IC50 [9] of the same substance?
Its IC50 is 0.248 mg/L.

What about the IC80 [9] of the same substance?
Its IC80 is 1.17 mg/L.

And the MPI [9]?
The MPI was 100.

What about the IC50 [10] of the same substance?
The IC50 was 8.42 mg/L.

What about the IC80 [10] of the same substance?
Its IC80 is 21.4 mg/L.

And the MPI [10]?
The MPI was 100.

And the IC50 [11]?
Its IC50 is 5.42 mg/L.

And the IC80 [11]?
The IC80 was 20.5 mg/L.

And the MPI [11]?
The MPI was 100.

And the IC50 [12]?
The IC50 was 0.729 mg/L.

And the IC80 [12]?
The IC80 was 3.49 mg/L.

What about the MPI [12] of the same substance?
The MPI was 100.

What about the IC50 [13] of the same substance?
Its IC50 is 0.179 mg/L.

What about the IC80 [13] of the same substance?
Its IC80 is 0.937 mg/L.

And the MPI [13]?
Its MPI is 100.

Which results are given for N49P18.1 (antibody)?
IC50 [1]: 6.35 mg/L; IC80 [1]: 17.7 mg/L; MPI [1]: 98; IC50 [2]: 20 mg/L; IC80 [2]: > 50 mg/L; MPI [2]: 71; IC50 [3]: 5.14 mg/L; IC80 [3]: 33.1 mg/L; MPI [3]: 88; IC50 [4]: 13.1 mg/L; IC80 [4]: 32.2 mg/L; MPI [4]: 93; IC50 [5]: 32.5 mg/L; IC80 [5]: > 50 mg/L; MPI [5]: 61; IC50 [6]: > 50 mg/L; IC80 [6]: > 50 mg/L; MPI [6]: 37; IC50 [7]: 1.88 mg/L; IC80 [7]: 6.81 mg/L; MPI [7]: 100; IC50 [8]: > 50 mg/L; IC80 [8]: > 50 mg/L; MPI [8]: 23; IC50 [9]: 9.65 mg/L; IC80 [9]: 40.2 mg/L; MPI [9]: 84; IC50 [10]: > 50 mg/L; IC80 [10]: > 50 mg/L; MPI [10]: 37; IC50 [11]: 17.3 mg/L; IC80 [11]: > 50 mg/L; MPI [11]: 79; IC50 [12]: 14.1 mg/L; IC80 [12]: 43.4 mg/L; MPI [12]: 84; IC50 [13]: 4.25 mg/L; IC80 [13]: 11.7 mg/L; MPI [13]: 99

How did the IC50 [14] turn out when N49P19 (antibody) was run?
The IC50 was 1.25 mg/L.

And the IC80 [14]?
Its IC80 is 8.52 mg/L.

And the MPI [14]?
Its MPI is 99.

And the IC50 [15]?
The IC50 was 0.344 mg/L.

And the IC80 [15]?
Its IC80 is 1.51 mg/L.

What about the MPI [15] of the same substance?
The MPI was 99.

What about the IC50 [16] of the same substance?
Its IC50 is > 50 mg/L.

What about the IC80 [16] of the same substance?
The IC80 was > 50 mg/L.

What about the MPI [16] of the same substance?
The MPI was 26.

And the IC50 [17]?
Its IC50 is > 50 mg/L.

What about the IC80 [17] of the same substance?
Its IC80 is > 50 mg/L.

What about the MPI [17] of the same substance?
Its MPI is 0.

What about the IC50 [18] of the same substance?
Its IC50 is 2.73 mg/L.

What about the IC80 [18] of the same substance?
Its IC80 is 9.63 mg/L.

And the MPI [18]?
Its MPI is 97.

What about the IC50 [19] of the same substance?
Its IC50 is 4.16 mg/L.

What about the IC80 [19] of the same substance?
Its IC80 is 19.1 mg/L.

What about the MPI [19] of the same substance?
The MPI was 96.

And the IC50 [20]?
The IC50 was > 50 mg/L.

And the IC80 [20]?
Its IC80 is > 50 mg/L.

And the MPI [20]?
The MPI was 24.

And the IC50 [21]?
Its IC50 is 3.94 mg/L.

And the IC80 [21]?
The IC80 was 25.7 mg/L.

And the MPI [21]?
The MPI was 87.

And the IC50 [22]?
Its IC50 is 0.132 mg/L.

And the IC80 [22]?
The IC80 was 0.445 mg/L.

What about the MPI [22] of the same substance?
Its MPI is 100.

And the IC50 [23]?
Its IC50 is > 50 mg/L.

What about the IC80 [23] of the same substance?
Its IC80 is > 50 mg/L.

What about the MPI [23] of the same substance?
The MPI was 7.

What about the IC50 [24] of the same substance?
Its IC50 is > 50 mg/L.

And the IC80 [24]?
The IC80 was > 50 mg/L.

And the MPI [24]?
Its MPI is 35.

Which results are given for PG9 (antibody)?
IC50, titer in TZM.bl cells [25]: 0.049 mg/L; IC80, titer in TZM.bl cells [25]: 0.243 mg/L; IC50, titer in TZM.bl cells [26]: 0.154 mg/L; IC80, titer in TZM.bl cells [26]: 0.74 mg/L; IC50, titer in TZM.bl cells [27]: 0.322 mg/L; IC80, titer in TZM.bl cells [27]: 1.49 mg/L; IC50, titer in TZM.bl cells [28]: 1.1 mg/L; IC80, titer in TZM.bl cells [28]: 21.5 mg/L; IC50, titer in TZM.bl cells [29]: 0.004 mg/L; IC80, titer in TZM.bl cells [29]: 0.013 mg/L; IC50, titer in TZM.bl cells [30]: 0.032 mg/L; IC80, titer in TZM.bl cells [30]: 0.113 mg/L; IC50, titer in TZM.bl cells [31]: 0.018 mg/L; IC80, titer in TZM.bl cells [31]: 0.051 mg/L; IC50, titer in TZM.bl cells [32]: 0.105 mg/L; IC80, titer in TZM.bl cells [32]: 0.304 mg/L

With PG16 (antibody) as the substance, how does the IC50, titer in TZM.bl cells [25] read?
The IC50, titer in TZM.bl cells was 0.029 mg/L.

And the IC80, titer in TZM.bl cells [25]?
Its IC80, titer in TZM.bl cells is 0.144 mg/L.

And the IC50, titer in TZM.bl cells [26]?
Its IC50, titer in TZM.bl cells is 1.2 mg/L.

And the IC80, titer in TZM.bl cells [26]?
The IC80, titer in TZM.bl cells was > 50 mg/L.

And the IC50, titer in TZM.bl cells [27]?
The IC50, titer in TZM.bl cells was 3.13 mg/L.

And the IC80, titer in TZM.bl cells [27]?
Its IC80, titer in TZM.bl cells is > 50 mg/L.

What about the IC50, titer in TZM.bl cells [28] of the same substance?
The IC50, titer in TZM.bl cells was > 50 mg/L.

And the IC80, titer in TZM.bl cells [28]?
The IC80, titer in TZM.bl cells was > 50 mg/L.

What about the IC50, titer in TZM.bl cells [29] of the same substance?
Its IC50, titer in TZM.bl cells is 0.001 mg/L.

And the IC80, titer in TZM.bl cells [29]?
Its IC80, titer in TZM.bl cells is 0.003 mg/L.

What about the IC50, titer in TZM.bl cells [30] of the same substance?
Its IC50, titer in TZM.bl cells is 0.008 mg/L.

What about the IC80, titer in TZM.bl cells [30] of the same substance?
The IC80, titer in TZM.bl cells was 0.045 mg/L.

And the IC50, titer in TZM.bl cells [31]?
The IC50, titer in TZM.bl cells was 0.008 mg/L.

What about the IC80, titer in TZM.bl cells [31] of the same substance?
Its IC80, titer in TZM.bl cells is 0.033 mg/L.

What about the IC50, titer in TZM.bl cells [32] of the same substance?
The IC50, titer in TZM.bl cells was 0.018 mg/L.

And the IC80, titer in TZM.bl cells [32]?
Its IC80, titer in TZM.bl cells is 0.11 mg/L.

Reference: patent US20230002480A1
